Measured values from IntAct's records for PubMed 17965270.

B1: B-box zinc finger protein 21 (Arabidopsis thaliana (Mouse-ear cress)), Q9LQZ7 (parent)
chain: MKIRCDVCDKEEASVFCTADEASLCGGCDHQVHHANKLASKHLRFSLLYPSSSNTSSPLCDICQDKKALLFCQQDRAILCKDCDSSIHAANEHTKKHDRFLLTGVKLSATSSVYKPTSKSSSSSSSNQDFSVPGSSISNPPPLKKPLSAPPQSNKIQPFSKINGGDASVNQWGSTSTISEYLMDTLPGWHVEDFLDSSLPTYGFSKSGDDDGVLPYMEPEDDNNTKRNNNNNNNNNNNTVSLPSKNLGIWVPQIPQTLPSSYPNQYFSQDNNIQFGMYNKETSPEVVSFAPIQNMKQQGQNNKRWYDDGGFTVPQITPPPLSSNKKFRSFW
partner: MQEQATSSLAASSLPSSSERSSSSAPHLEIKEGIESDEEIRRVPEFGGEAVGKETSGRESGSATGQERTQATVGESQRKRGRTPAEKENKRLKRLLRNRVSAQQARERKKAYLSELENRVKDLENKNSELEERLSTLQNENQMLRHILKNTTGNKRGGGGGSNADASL

Variants of: B1
Details: with hy5_arath HY5, O24646

Effect of a mutation on the interaction, disrupting interaction:
D20A
D75A
D84A
